Data reported in the RNAGym collection of RNA variant scans (doi:10.7554/elife.80360).

B1: HDV Ribozyme (parent)
chain: GGCCGGCAUGGUCCCAGCCUCCUCGCUGGCGCCGGCUGGGCAACAUUCCGAGGGGACCGUCCCCUCGGUAAUGGCGAAUGGGACCCA

Variants of: B1
Test: self-cleavage, relative activity (ratio to wild type); higher = more cleavage; co-transcriptional

Which self-cleavage does the source give for GGCCGGCAUGGUCCCUGCCUCCUCGCUGGCGCCGGCUGGGCAACAUUUCGAGGGGACCGUCCCCUCGGUAAUGGCGAAUGGGACCCA [A16U C48U] here?
The self-cleavage was 1.07.

Which self-cleavage does the source give for GGCCGGCAUGGUCCCAGCCUCCUCGCUGUCGCCGGCUGGGCAACAUCCCGAGGGGACCGUCCCCUCGGUAAUGGCGAAUGGGACCCA [G29U U47C] here?
Its self-cleavage is 0.19.

For GGCGGGCAUGGUCCCAGCCCCCUCGCUGGCGCCGGCUGGGCAACAUUCCGAGGGGACCGUCCCCUCGGUAAUGGCGAAUGGGACCCA [C4G U20C], which self-cleavage is on record?
The self-cleavage was 0.0791.

With GGCCGGCAUGGUCCCAGCCGCCUCGCUGGCGCCGGCUGGGCAACAUUCCGAGGGGACCGUCCCCUCGGUAAUGUCGAAUGGGACCCA [U20G G74U] as the variant, how does the self-cleavage read?
Its self-cleavage is 0.

With GGCCGGCAUGGUCCCAGCCUCCUCGCGGGCGCCGGCUGGGCAACAUUCCGAGUGGACCGUCCCCUCGGUAAUGGCGAAUGGGACCCA [U27G G53U] as the variant, how does the self-cleavage read?
Its self-cleavage is 0.923.

With GGCCGGCAUGGUCCCAGCCUCGUCGCUGGCGCCGGCUGGGCAACAUUCCGAGGGGACCGUCCCCUCGGUAAUGGCGAAUGGCACCCA [C22G G82C] as the variant, how does the self-cleavage read?
Its self-cleavage is 0.0378.

For GGCCGGCAUGGUCCCAGCCUCCUCGCUGGCGCCGGGUGGGCAACAUUCCGAGGGGACCGUCCCCUCGGUAAUGCCGAAUGGGACCCA [C36G G74C], which self-cleavage is on record?
Its self-cleavage is 0.0723.

Which self-cleavage does the source give for GGCCGGCAUGCUCCCAGCCUCCUCGCUUGCGCCGGCUGGGCAACAUUCCGAGGGGACCGUCCCCUCGGUAAUGGCGAAUGGGACCCA [G11C G28U] here?
The self-cleavage was 0.0268.

Which self-cleavage does the source give for GCCCGGCAUGGUCCCAGCCUCGUCGCUGGCGCCGGCUGGGCAACAUUCCGAGGGGACCGUCCCCUCGGUAAUGGCGAAUGGGACCCA [G2C C22G] here?
The self-cleavage was 0.0875.

With GGCCGGCAUGGUCCCAGCCUCCUCGCUGGCGCCGGCUGGGCAGCAUUCCGAGGGGACCGUCCCAUCGGUAAUGGCGAAUGGGACCCA [A43G C64A] as the variant, how does the self-cleavage read?
The self-cleavage was 0.612.

Which self-cleavage does the source give for GGCCGGCAUGGUCCCAGCCUCCUCGCUGGCGCCGGCUGGGCAACAUUCCGAGGGGACCCUCCCCUCGGUAAUGGCGAAUGGGCCCCA [G59C A83C] here?
Its self-cleavage is 0.514.

Which self-cleavage does the source give for GGCCGGCAUGGUCCCAGCCUCCUCGCUGGCGCCGGCUGGGCAACAUUCCGAGGGGUCCGUCCCCUCGGCAAUGGCGAAUGGGACCCA [A56U U69C] here?
Its self-cleavage is 0.733.

For GGCCGGCAUGGUCCCAGCCUCCUCGCUGGCGCGGGCUGGGCAACAUUCCGAGGGGACCGUCCCCUCGGUAAUGGCGAAUGGAACCCA [C33G G82A], which self-cleavage is on record?
The self-cleavage was 0.

For GGCCCGCACGGUCCCAGCCUCCUCGCUGGCGCCGGCUGGGCAACAUUCCGAGGGGACCGUCCCCUCGGUAAUGGCGAAUGGGACCCA [G5C U9C], which self-cleavage is on record?
The self-cleavage was 0.312.

For GGCUGGCAUGGUCCCAGCCUCCUCGCUGGCGCCGGCUGGGCAACAUUCCGAGGGGACCGUCCCCUCGGUAAUAGCGAAUGGGACCCA [C4U G73A], which self-cleavage is on record?
The self-cleavage was 0.293.

Which self-cleavage does the source give for GGCCGGCAUGGUCCCAGCCUCCUCGCUGGCGCCGGCUGAGCAACAUUCCGAGGGGAGCGUCCCCUCGGUAAUGGCGAAUGGGACCCA [G39A C57G] here?
Its self-cleavage is 0.591.

For GGCCGGCAUGGUCCCAGCCUCCGCGCUGGCGCCGGCUGGGCAACAUUCCGACGGGACCGUCCCCUCGGUAAUGGCGAAUGGGACCCA [U23G G52C], which self-cleavage is on record?
Its self-cleavage is 0.807.

With GGCCGGCAUGCUCCCAGCCUCCUCGCUGGCGCCGGCUGGGCAACAUUCCGAGGGGACCGUCCCCUCGGUAAUGGCGAAUGUGACCCA [G11C G81U] as the variant, how does the self-cleavage read?
The self-cleavage was 0.225.

For GGCCGGCAUGGUCCCAGCCUCGUCGCUGGCGCCGGCUGGGCAACAUUCCGAGGGGACCGUCCCCUCGGUAAUGGAGAAUGGGACCCA [C22G C75A], which self-cleavage is on record?
The self-cleavage was 0.

Which self-cleavage does the source give for GGUCGGCAUGGUCCCAGCCUCCUCGCUGGCGCCGGCUGGGCAACAUUCCGAGGGGACCGUCCCCUCGGUAAUGGCCAAUGGGACCCA [C3U G76C] here?
Its self-cleavage is 0.708.

With GGCCCGCAUGGUCCCAGCCUCCUCGCUGGCGCCGGCUGGGCAACAUUCCGAGGGGACCGUCCCCUCGGUAAUGGCGAAUCGGACCCA [G5C G80C] as the variant, how does the self-cleavage read?
The self-cleavage was 0.17.

With GGCCGGCAUGGUCCCAGCCUCCUCGCUGGCGCCGGCCGGGCAACAUUCCGAGGGGACCGUCCCCUCGGUAAUGACGAAUGGGACCCA [U37C G74A] as the variant, how does the self-cleavage read?
Its self-cleavage is 0.196.

For GUCCGGCAUGGUCCCAGCCUCCUCGCUGGCGCCGGCUGGGCAACAUUCCGAGGGGACCGUCCCCUCGGUAAUGGCGAAUGGGAGCCA [G2U C84G], which self-cleavage is on record?
Its self-cleavage is 0.0213.

For GGCCGGCAUGGUCCCAGCCUUCUCGCUGGCGCCGGCUGGGCAACAUUCCGAGGGGACCGUCCCCUCGGUAAUAGCGAAUGGGACCCA [C21U G73A], which self-cleavage is on record?
Its self-cleavage is 0.0955.

With GGCCGUCAUGGUCCCAGCCUCCUCGCUGGCGCCGGCUGGGCAACAUUCCGAGGGGACCGUCCCCUCGGUAAUGGCGAAUGGGAACCA [G6U C84A] as the variant, how does the self-cleavage read?
The self-cleavage was 0.375.

For GGCCGGUAUGGUCCCAGCCUCCUCGCUGGCGCCGGCUGGGCAACAUUCCGAGGGGACCGUCCCCUCGGUAAUGGCGUAUGGGACCCA [C7U A77U], which self-cleavage is on record?
Its self-cleavage is 0.151.

With GGCCGGCAUGGUCCCAGCCUCCUCGCUGGCGCCGGCCGGGCAACAUUUCGAGGGGACCGUCCCCUCGGUAAUGGCGAAUGGGACCCA [U37C C48U] as the variant, how does the self-cleavage read?
The self-cleavage was 1.14.

Which self-cleavage does the source give for AGCCGGCAUGGUCCCAGCCUCCUCGCUGGCGCCGGCUGGGCAACAUUCCGAGGGGACGGUCCCCUCGGUAAUGGCGAAUGGGACCCA [G1A C58G] here?
The self-cleavage was 0.0665.

For GGCCGGCAUGGUCCCAGCCUCCUCGCUGGCGCCGGCUGGGCAACAUUCCCAGGGGACCGUCCCCUCGGUAAUGACGAAUGGGACCCA [G50C G74A], which self-cleavage is on record?
Its self-cleavage is 0.471.

Which self-cleavage does the source give for GGCCGGCAUGGUCCCAGCCUCCUCGCUGGCGCCGGCUGGGCAACAUUCCGAAGGGACCGUCUCCUCGGUAAUGGCGAAUGGGACCCA [G52A C62U] here?
The self-cleavage was 1.12.

With GGCCGGCAUGGUCCCAGCCUCCUCGCUGCCUCCGGCUGGGCAACAUUCCGAGGGGACCGUCCCCUCGGUAAUGGCGAAUGGGACCCA [G29C G31U] as the variant, how does the self-cleavage read?
Its self-cleavage is 0.0755.

For GGCCGGCAUGGUCCCAGCCUCCUCGCUGGCGCCGGCUGGGCAACAUUCCGAGGGGACCGUCCCCUAGGUAAUGGCGAAUGGGACGCA [C66A C85G], which self-cleavage is on record?
Its self-cleavage is 0.918.
